Data from publication PMC10786891, “Massively parallel profiling of RNA-targeting CRISPR-Cas13d”.

T1: EsCas13d, nuclease-dead (Eubacterium siraeum, UniProt B0MS50, R295A;H300A;R849A;H854A)
T1 sequence: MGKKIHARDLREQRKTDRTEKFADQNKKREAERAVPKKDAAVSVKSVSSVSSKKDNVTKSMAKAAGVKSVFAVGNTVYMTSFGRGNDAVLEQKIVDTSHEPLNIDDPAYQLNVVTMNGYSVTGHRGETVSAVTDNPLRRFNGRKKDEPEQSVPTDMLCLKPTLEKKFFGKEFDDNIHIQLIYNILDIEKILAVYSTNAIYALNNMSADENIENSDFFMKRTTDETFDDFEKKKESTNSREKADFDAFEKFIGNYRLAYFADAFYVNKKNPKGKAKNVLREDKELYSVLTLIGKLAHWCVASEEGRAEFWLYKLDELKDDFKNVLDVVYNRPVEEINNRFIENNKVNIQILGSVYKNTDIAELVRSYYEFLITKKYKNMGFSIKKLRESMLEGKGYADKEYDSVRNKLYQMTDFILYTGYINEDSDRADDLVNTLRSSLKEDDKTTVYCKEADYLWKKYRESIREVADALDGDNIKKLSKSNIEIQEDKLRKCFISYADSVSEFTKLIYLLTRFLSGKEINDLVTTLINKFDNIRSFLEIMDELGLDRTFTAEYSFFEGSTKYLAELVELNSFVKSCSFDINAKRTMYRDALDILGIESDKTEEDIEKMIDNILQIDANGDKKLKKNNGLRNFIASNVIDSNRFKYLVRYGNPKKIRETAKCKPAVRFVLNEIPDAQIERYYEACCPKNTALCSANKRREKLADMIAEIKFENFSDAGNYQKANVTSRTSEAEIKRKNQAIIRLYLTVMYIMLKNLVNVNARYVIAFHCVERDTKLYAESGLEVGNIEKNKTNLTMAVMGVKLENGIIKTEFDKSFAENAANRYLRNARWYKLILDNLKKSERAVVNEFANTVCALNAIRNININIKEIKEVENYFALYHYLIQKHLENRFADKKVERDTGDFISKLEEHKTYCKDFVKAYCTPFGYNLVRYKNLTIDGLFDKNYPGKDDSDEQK


What follows are binders tested against T1, EsCas13d, nuclease-dead (assay: crRNA (strand 1, pre-loaded); Mg2+; 40 mM Tris-HCl pH 7.5, 150 mM NaCl, 6 mM MgCl2, 1 mM DTT, 0.1% Tween-20, 0.2 mg/ml BSA; 25 C; 10 min per concentration, then washed). Details: tags: His6-TwinStrep-SUMO cleaved; N-terminal SNAP kept (SNAP-Surface 488); label: 3' end held by stalled T7 RNA polymerase.

Binder | Kd [µM]
target 2 MT 5'PFS UAU 3'PFS AGG (mixed) RNA 1: CACCCGUGCAAAAUUGCAGGGGUCUAAAACCUUCUCCAAAUUGUUUCAUCCU RNA 2: GGGAAUGGAUCCACAUCUACGAAUUCUAUAGGAUGAAACAAUUUGGAGAAGAGGAGAUCGGAAGAGCACACGU | 0.0281 ± 0.0033
target 2 MT 5'PFS UAA 3'PFS ACG (mixed) RNA 1: CACCCGUGCAAAAUUGCAGGGGUCUAAAACCUUCUCCAAAUUGUUUCAUCCU RNA 2: GGGAAUGGAUCCACAUCUACGAAUUCUAAAGGAUGAAACAAUUUGGAGAAGACGAGAUCGGAAGAGCACACGU | 0.0088 ± 0.0021
target 2 MT 5'PFS ACG 3'PFS CGC (mixed) RNA 1: CACCCGUGCAAAAUUGCAGGGGUCUAAAACCUUCUCCAAAUUGUUUCAUCCU RNA 2: GGGAAUGGAUCCACAUCUACGAAUUCACGAGGAUGAAACAAUUUGGAGAAGCGCAGAUCGGAAGAGCACACGU | 0.0082 ± 0.0011
target 2 MT 5'PFS UAU 3'PFS AGU (mixed) RNA 1: CACCCGUGCAAAAUUGCAGGGGUCUAAAACCUUCUCCAAAUUGUUUCAUCCU RNA 2: GGGAAUGGAUCCACAUCUACGAAUUCUAUAGGAUGAAACAAUUUGGAGAAGAGUAGAUCGGAAGAGCACACGU | 0.0152 ± 0.0016
target 2 MT 5'PFS ACU 3'PFS CAA (mixed) RNA 1: CACCCGUGCAAAAUUGCAGGGGUCUAAAACCUUCUCCAAAUUGUUUCAUCCU RNA 2: GGGAAUGGAUCCACAUCUACGAAUUCACUAGGAUGAAACAAUUUGGAGAAGCAAAGAUCGGAAGAGCACACGU | 0.0037 ± 0.0008
target 2 MT 5'PFS CUU 3'PFS UGU (mixed) RNA 1: CACCCGUGCAAAAUUGCAGGGGUCUAAAACCUUCUCCAAAUUGUUUCAUCCU RNA 2: GGGAAUGGAUCCACAUCUACGAAUUCCUUAGGAUGAAACAAUUUGGAGAAGUGUAGAUCGGAAGAGCACACGU | 0.00426 ± 0.0003
target 2 MT 5'PFS GCA 3'PFS UGC (mixed) RNA 1: CACCCGUGCAAAAUUGCAGGGGUCUAAAACCUUCUCCAAAUUGUUUCAUCCU RNA 2: GGGAAUGGAUCCACAUCUACGAAUUCGCAAGGAUGAAACAAUUUGGAGAAGUGCAGAUCGGAAGAGCACACGU | 0.0127 ± 0.0023
target 2 MT 5'PFS UAA 3'PFS ACU (mixed) RNA 1: CACCCGUGCAAAAUUGCAGGGGUCUAAAACCUUCUCCAAAUUGUUUCAUCCU RNA 2: GGGAAUGGAUCCACAUCUACGAAUUCUAAAGGAUGAAACAAUUUGGAGAAGACUAGAUCGGAAGAGCACACGU | 0.009 ± 0.0014
target 2 MT 5'PFS GCC 3'PFS UUA (mixed) RNA 1: CACCCGUGCAAAAUUGCAGGGGUCUAAAACCUUCUCCAAAUUGUUUCAUCCU RNA 2: GGGAAUGGAUCCACAUCUACGAAUUCGCCAGGAUGAAACAAUUUGGAGAAGUUAAGAUCGGAAGAGCACACGU | 0.025 ± 0.007
target 2 MT 5'PFS ACG 3'PFS CGA (mixed) RNA 1: CACCCGUGCAAAAUUGCAGGGGUCUAAAACCUUCUCCAAAUUGUUUCAUCCU RNA 2: GGGAAUGGAUCCACAUCUACGAAUUCACGAGGAUGAAACAAUUUGGAGAAGCGAAGAUCGGAAGAGCACACGU | 0.0085 ± 0.0021
target 2 MT 5'PFS ACU 3'PFS CAC (mixed) RNA 1: CACCCGUGCAAAAUUGCAGGGGUCUAAAACCUUCUCCAAAUUGUUUCAUCCU RNA 2: GGGAAUGGAUCCACAUCUACGAAUUCACUAGGAUGAAACAAUUUGGAGAAGCACAGAUCGGAAGAGCACACGU | 0.0041 ± 0.0006
target 2 MT 5'PFS UAU 3'PFS CGG (mixed) RNA 1: CACCCGUGCAAAAUUGCAGGGGUCUAAAACCUUCUCCAAAUUGUUUCAUCCU RNA 2: GGGAAUGGAUCCACAUCUACGAAUUCUAUAGGAUGAAACAAUUUGGAGAAGCGGAGAUCGGAAGAGCACACGU | 0.052 ± 0.011
target 2 MT 5'PFS UAU 3'PFS CGA (mixed) RNA 1: CACCCGUGCAAAAUUGCAGGGGUCUAAAACCUUCUCCAAAUUGUUUCAUCCU RNA 2: GGGAAUGGAUCCACAUCUACGAAUUCUAUAGGAUGAAACAAUUUGGAGAAGCGAAGAUCGGAAGAGCACACGU | 0.027 ± 0.0019
target 2 MT 5'PFS GCC 3'PFS UUG (mixed) RNA 1: CACCCGUGCAAAAUUGCAGGGGUCUAAAACCUUCUCCAAAUUGUUUCAUCCU RNA 2: GGGAAUGGAUCCACAUCUACGAAUUCGCCAGGAUGAAACAAUUUGGAGAAGUUGAGAUCGGAAGAGCACACGU | 0.0153 ± 0.0021
target 2 MT 5'PFS GCA 3'PFS UGA (mixed) RNA 1: CACCCGUGCAAAAUUGCAGGGGUCUAAAACCUUCUCCAAAUUGUUUCAUCCU RNA 2: GGGAAUGGAUCCACAUCUACGAAUUCGCAAGGAUGAAACAAUUUGGAGAAGUGAAGAUCGGAAGAGCACACGU | 0.013 ± 0.004
target 2 MT 5'PFS UAA 3'PFS ACC (mixed) RNA 1: CACCCGUGCAAAAUUGCAGGGGUCUAAAACCUUCUCCAAAUUGUUUCAUCCU RNA 2: GGGAAUGGAUCCACAUCUACGAAUUCUAAAGGAUGAAACAAUUUGGAGAAGACCAGAUCGGAAGAGCACACGU | 0.024 ± 0.009
target 2 MT 5'PFS GCC 3'PFS UUC (mixed) RNA 1: CACCCGUGCAAAAUUGCAGGGGUCUAAAACCUUCUCCAAAUUGUUUCAUCCU RNA 2: GGGAAUGGAUCCACAUCUACGAAUUCGCCAGGAUGAAACAAUUUGGAGAAGUUCAGAUCGGAAGAGCACACGU | 0.027 ± 0.007
target 2 MT 5'PFS UAU 3'PFS CGC (mixed) RNA 1: CACCCGUGCAAAAUUGCAGGGGUCUAAAACCUUCUCCAAAUUGUUUCAUCCU RNA 2: GGGAAUGGAUCCACAUCUACGAAUUCUAUAGGAUGAAACAAUUUGGAGAAGCGCAGAUCGGAAGAGCACACGU | 0.075 ± 0.013
target 2 MT 5'PFS UAA 3'PFS ACA (mixed) RNA 1: CACCCGUGCAAAAUUGCAGGGGUCUAAAACCUUCUCCAAAUUGUUUCAUCCU RNA 2: GGGAAUGGAUCCACAUCUACGAAUUCUAAAGGAUGAAACAAUUUGGAGAAGACAAGAUCGGAAGAGCACACGU | 0.006 ± 0.0012
target 2 MT 5'PFS ACU 3'PFS CAG (mixed) RNA 1: CACCCGUGCAAAAUUGCAGGGGUCUAAAACCUUCUCCAAAUUGUUUCAUCCU RNA 2: GGGAAUGGAUCCACAUCUACGAAUUCACUAGGAUGAAACAAUUUGGAGAAGCAGAGAUCGGAAGAGCACACGU | 0.0045 ± 0.0005
target 2 MT 5'PFS GUG 3'PFS CAU (mixed) RNA 1: CACCCGUGCAAAAUUGCAGGGGUCUAAAACCUUCUCCAAAUUGUUUCAUCCU RNA 2: GGGAAUGGAUCCACAUCUACGAAUUCGUGAGGAUGAAACAAUUUGGAGAAGCAUAGAUCGGAAGAGCACACGU | 0.0092 ± 0.0008
target 1 insA 3' of 4,insG 3' of 4 (mixed) RNA 1: CACCCGUGCAAAAAUGCAGGGGUCUAAAACUGAGCGGAUAACCUCUCUAUGG RNA 2: GGGAAUGGAUCCACAUCUACGAAUUCGUACCAUAGAGAGGUUAUCCGCAGUCACCGAGAUCGGAAGAGCACACGU | 0.00532 ± 0.00026
target 1 insA 3' of 21,insC 3' of 11 (mixed) RNA 1: CACCCGUGCAAAAAUGCAGGGGUCUAAAACUGAGCGGAUAACCUCUCUAUGG RNA 2: GGGAAUGGAUCCACAUCUACGAAUUCGUACCAAUAGAGAGGUCUAUCCGCUCACCGAGAUCGGAAGAGCACACGU | ~0.08
target 1 C6G,A18U (mixed) RNA 1: CACCCGUGCAAAAAUGCAGGGGUCUAAAACUGAGCGGAUAACCUCUCUAUGG RNA 2: GGGAAUGGAUCCACAUCUACGAAUUCGUACCAUUGAGAGGUUAUCGGCUCACCGAGAUCGGAAGAGCACACGU | 0.029 ± 0.004
